# Test results: patent US10927188B2, “Method for producing short-chain peptide-immobilized carrier, and short-chain peptide-immobilized carrier” (FUJIFILM Corporation, priority 2015, dated 2021)
# Where no end group is shown, it is not given here.
# Assay: Percentage content of secondary structure by CD (circular dichroism) spectrum
# Assay type: physicochemical
# Settings: for Percentage content of secondary structure In HEPES: free peptide in HEPES buffer solution (10 mM HEPES-HCl, 150 mM NaCl, pH 7.4, 25° C.); for Percentage content of secondary structure In MeOH: free peptide in methanol (purity 99.5% by mass)
Substance,Percentage content of secondary structure In HEPES,Percentage content of secondary structure In MeOH
Ac-KAAKEQQKAFYKILH [Short-chain peptide 5],36%,92%
KKKEQQNAFYEILHKKK (SIMILAR (4)..(14) SEQ ID No.2 EQQNAFYEILH; SIMILAR (4)..(10) SEQ ID No.1 EQQNAFY) [Short-chain peptide 3],33%,100%
KKKKEQQNAFYEILHKKKK (SIMILAR (5)..(11) SEQ ID No.1 EQQNAFY; SIMILAR (5)..(15) SEQ ID No.2 EQQNAFYEILH) [Short-chain peptide 4],32%,100%
KKKKKEQQNAFYEILH (SIMILAR (6)..(12) SEQ ID No.1 EQQNAFY; SIMILAR (6)..(16) SEQ ID No.2 EQQNAFYEILH) [Short-chain peptide 2],30%,84%
KKRKEQQKKFYKKLHK [Short-chain peptide 8],16%,88%
KKRKEQQNAFYEILHKRRKK [Short-chain peptide 7],35%,100%
KKRREQQNAFYEILHKRRKK [Short-chain peptide 6],35%,100%
